Tests used:
[1] = target: T1, cell surface calreticulin on human fibroblastoid M1 cells (human, UniProt P27797 18-417); assay: cell-based or functional assay
T1 sequence (looked up): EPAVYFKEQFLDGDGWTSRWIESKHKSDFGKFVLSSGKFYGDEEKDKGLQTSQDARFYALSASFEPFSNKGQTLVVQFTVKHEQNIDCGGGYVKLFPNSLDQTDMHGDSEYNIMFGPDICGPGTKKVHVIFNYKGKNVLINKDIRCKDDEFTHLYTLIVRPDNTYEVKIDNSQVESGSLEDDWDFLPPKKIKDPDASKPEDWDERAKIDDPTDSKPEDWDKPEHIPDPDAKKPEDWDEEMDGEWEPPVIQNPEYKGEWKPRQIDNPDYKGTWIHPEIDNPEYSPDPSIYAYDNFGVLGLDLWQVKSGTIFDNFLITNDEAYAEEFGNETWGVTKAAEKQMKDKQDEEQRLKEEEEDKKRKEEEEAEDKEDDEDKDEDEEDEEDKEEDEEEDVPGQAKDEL

[2] = target: T2, recombinant human calreticulin (human, UniProt P27797 18-417); assay: SPR (Biacore 2000), calreticulin immobilized on CM5
T2 construct: Expressed in E. coli as a GST fusion; also called Crt; purified recombinant calreticulin
T2 sequence: T1 sequence (looked up)
Protocol: Prior to use, biosensor chips CM5 were docked into a Biacore® 2000 and preconditioned in water at 100 μl/min by applying two consecutive 20-μl pulses of 50 mM NaOH, then 10 mM HCl, and finally 0.1% SDS. […] Immobilizations were conducted at 25° C. in HBS-EP (10 mM HEPES, pH7.4, 150 mM NaCl, 1 mM EDTA, 0.005% Surfactant P-20), with a flow of 10 μl/min. The CM5 surface was activated by 7 min injection of 200 mM EDC/50 mM NHS to prepare a high-capacity surface, with manual injection of 100 μg/ml calreticulin until 5500 RU level was approached. Then 100 μl of 1M ethanolamine was used to block remaining activated group.
Calreticulin and peptide binding were performed at 25° C. in binding buffer (10 mM HEPES, pH8.0, 50 mM KCl, 0.5 mM CaCl₂, 1% Triton-X100), with a flow rate of 10 μl/min. […] Binding assays were repeated at least 3 times. Kinetic analysis was performed using Kinetic separate kₐ/kd fitting in BIA evaluation 3.0 software.

B1: peptide 65-78*0401 (peptide)
peptide: KDLLEQKRAAVDTY
- inhibition of cAMP-mediated (2CA-induced) DNA repair induction in cells; IC50 [1]: ~0.25 µM

B2: pentapeptide DKCLA (peptide)
peptide: DKCLA
- inhibition of NO induction by Sepharose bead-bound 65-79*0401 in M1 cells; IC50 [1]: ~35 µM

B3: pentapeptide QKRAE (peptide)
peptide: QKRAE
notes: Synthetic pentapeptide
- binding result [2]: no binding

— US20050013820A1 (REGENTS OF THE UNIVERSITY OF MICHIGAN, published 2005)
